Measured values: patent publication US11142752B2, “Pullulanase mutant” (Jiangnan University, priority 2018, dated 2021)
Values joined by “and” are separate entries in the source; they are usually repeats but may differ in a detail not shown here. Equal values may be shown once.

Test system: pullulanase derived from Bacillus subtilis str. 168
Assay: Inhibitory effect of cyclodextrin on pullulanase enzyme activity (DNS method, pullulan substrate)
Format: biochemical
Details: for Reduction rate of specific enzyme activity in existence of α-CD / Reduction rate of specific enzyme activity in existence of β-CD / Reduction rate of specific enzyme activity in existence of γ-CD: Bacillus subtilis str. 168 pullulanase, 1% pullulan pH 6.0, 40° C., 30 min; for Reduction rate of specific enzyme activity in existence of α-CD: inhibitor α-CD (0.1 mL of 10 mM cyclodextrin); for Reduction rate of specific enzyme activity in existence of β-CD: inhibitor β-CD (0.1 mL of 10 mM cyclodextrin); for Reduction rate of specific enzyme activity in existence of γ-CD: inhibitor γ-CD (0.1 mL of 10 mM cyclodextrin); for Inhibitory effects of three cyclodextrins on the pullulanase mutant compared with the wild type pullulanase: α-CD, β-CD and γ-CD, comparison of mutant with wild type pure enzyme
Source text: 2. Measurement of Enzyme Activity of the Pullulanase:
A 3,5-dinitrosalicylic acid (DNS) method is adopted. The pullulanase catalyzes the hydrolysis of pullulan to produce reducing sugar under certain conditions, 3,5-dinitrosalicylic acid and the reducing sugar are reduced under thermal conditions to produce a brown-red amino complex, the color depth is directly proportional to the amount of the reducing sugar within a certain range, and the measurement can be performed at the wavelength of 540 nm so as to calculate the enzyme activity. Enzyme activity unit definition: the amount of the enzyme that catalyzes the production of the reducing sugar equivalent to 1 μmol of glucose reducing power per minute is defined as one activity unit.
3. Measurement of the Enzyme Activity Comprises the Following Steps:
A. preheating: putting 1 mL of a 1% pullulan solution of which the pH value is 6.0 and 0.1 mL of a buffer solution of which the pH value is 6.0 in a centrifuge tube, and performing thermal insulation for 10 min on a water bath of 40° C.;
B. reaction: adding 0.1 mL (10 U) of an enzyme solution, performing shaking and mixing uniformly, performing accurate timing for 30 min, adding 1.5 mL of DNS for stopping reaction, performing treatment in a boiling water bath for 10 min, and performing instant cooling; and
C. measurement: measuring the light absorption value under the condition of 540 nm, and calculating the activity.
Reduction of the Inhibitory Effect of Enzyme Activity Characterization:
A. preheating: putting 1 mL of the 1% pullulan solution of which the pH value is 6.0 and 0.1 mL of 10 mM cyclodextrin in the centrifuge tube, and performing thermal insulation for 10 min on the water bath of 40° C.;
B. reaction: adding 0.1 mL (10 U) of the enzyme solution, performing shaking and mixing uniformly, performing accurate timing for 30 min, adding 1.5 mL of DNS for stopping reaction, performing treatment in the boiling water bath for 10 min, and performing instant cooling; and […]

[1] = listed as wild type pure enzyme

B1: Mutant F476G: Bacillus subtilis str. 168 pullulanase with phenylalanine at position 476 mutated into glycine (protein, UniProt C0SPA0 1-718, looked up, variant F476G)
Pullulanase: MVSIRRSFEAYVDDMNIITVLIPAEQKEIMTPPFRLETEITDFPLAVREEYSLEAKYKYVCVSDHPVTFGKIHCVRASSGHKTDLQIGAVIRTAAFDDEFYYDGELGAVYTADHTVFKVWAPAATSAAVKLSHPNKSGRTFQMTRLEKGVYAVTVTGDLHGYEYLFCICNNSEWMETVDQYAKAVTVNGEKGVVLRPDQMKWTAPLKPFSHPVDAVIYETHLRDFSIHENSGMINKGKYLALTETDTQTANGSSSGLAYVKELGVTHVELLPVNDFAGVDEEKPLDAYNWGYNPLHFFAPEGSYASNPHDPQTRKTELKQMINTLHQHGLRVILDVVFNHVYKRENSPFEKTVPGYFFRHDECGMPSNGTGVGNDIASERRMARKFIADCVVYWLEEYNVDGFRFDLLGILDIDTVLYMKEKATKAKPGILLFGEGWDLATPLPHEQKAALANAPRMPGIGFFNDMFRDAVKGNTGHLKATGFALGNGESAQAVMHGIAGSSGWKALAPIVPEPSQSINYVESHDNHTFWDKMSFALPQENDSRKRSRQRLAAAIILLAQGVPFIHSGQEFFRTKQGVENSYQSSDSINQLDWDRRETFKEDVHYIRRLISLRKAHPAFRLRSAADIQRHLECLTLKEHLIAYRLYDLDEVDEWKDIIVIHHASPDSVEWRLPNDIPYRLLCDPSGFQEDPTEIKKTVAVNGIGTVILYLASDLKSFA
  Reduction rate of specific enzyme activity in existence of α-CD: 10.6%
  Reduction rate of specific enzyme activity in existence of β-CD: 17.1%
  Reduction rate of specific enzyme activity in existence of γ-CD: 17.6%
  Inhibitory effects of three cyclodextrins on the pullulanase mutant compared with the wild type pullulanase: significantly lower than that of the wild type pullulanase

B2: Mutant F476D: Bacillus subtilis str. 168 pullulanase with phenylalanine at position 476 mutated into aspartic acid (protein, UniProt C0SPA0 1-718, looked up, variant F476D)
Pullulanase: MVSIRRSFEAYVDDMNIITVLIPAEQKEIMTPPFRLETEITDFPLAVREEYSLEAKYKYVCVSDHPVTFGKIHCVRASSGHKTDLQIGAVIRTAAFDDEFYYDGELGAVYTADHTVFKVWAPAATSAAVKLSHPNKSGRTFQMTRLEKGVYAVTVTGDLHGYEYLFCICNNSEWMETVDQYAKAVTVNGEKGVVLRPDQMKWTAPLKPFSHPVDAVIYETHLRDFSIHENSGMINKGKYLALTETDTQTANGSSSGLAYVKELGVTHVELLPVNDFAGVDEEKPLDAYNWGYNPLHFFAPEGSYASNPHDPQTRKTELKQMINTLHQHGLRVILDVVFNHVYKRENSPFEKTVPGYFFRHDECGMPSNGTGVGNDIASERRMARKFIADCVVYWLEEYNVDGFRFDLLGILDIDTVLYMKEKATKAKPGILLFGEGWDLATPLPHEQKAALANAPRMPGIGFFNDMFRDAVKGNTDHLKATGFALGNGESAQAVMHGIAGSSGWKALAPIVPEPSQSINYVESHDNHTFWDKMSFALPQENDSRKRSRQRLAAAIILLAQGVPFIHSGQEFFRTKQGVENSYQSSDSINQLDWDRRETFKEDVHYIRRLISLRKAHPAFRLRSAADIQRHLECLTLKEHLIAYRLYDLDEVDEWKDIIVIHHASPDSVEWRLPNDIPYRLLCDPSGFQEDPTEIKKTVAVNGIGTVILYLASDLKSFA
  Reduction rate of specific enzyme activity in existence of α-CD: 5.6%
  Reduction rate of specific enzyme activity in existence of β-CD: 11.1%
  Reduction rate of specific enzyme activity in existence of γ-CD: 11.0%
  Inhibitory effects of three cyclodextrins on the pullulanase mutant compared with the wild type pullulanase: significantly lower than that of the wild type pullulanase

B3: Mutant F476I: Bacillus subtilis str. 168 pullulanase mutated at position 476 (F to I) (protein, UniProt C0SPA0 1-718, looked up, variant F476I)
Pullulanase: MVSIRRSFEAYVDDMNIITVLIPAEQKEIMTPPFRLETEITDFPLAVREEYSLEAKYKYVCVSDHPVTFGKIHCVRASSGHKTDLQIGAVIRTAAFDDEFYYDGELGAVYTADHTVFKVWAPAATSAAVKLSHPNKSGRTFQMTRLEKGVYAVTVTGDLHGYEYLFCICNNSEWMETVDQYAKAVTVNGEKGVVLRPDQMKWTAPLKPFSHPVDAVIYETHLRDFSIHENSGMINKGKYLALTETDTQTANGSSSGLAYVKELGVTHVELLPVNDFAGVDEEKPLDAYNWGYNPLHFFAPEGSYASNPHDPQTRKTELKQMINTLHQHGLRVILDVVFNHVYKRENSPFEKTVPGYFFRHDECGMPSNGTGVGNDIASERRMARKFIADCVVYWLEEYNVDGFRFDLLGILDIDTVLYMKEKATKAKPGILLFGEGWDLATPLPHEQKAALANAPRMPGIGFFNDMFRDAVKGNTIHLKATGFALGNGESAQAVMHGIAGSSGWKALAPIVPEPSQSINYVESHDNHTFWDKMSFALPQENDSRKRSRQRLAAAIILLAQGVPFIHSGQEFFRTKQGVENSYQSSDSINQLDWDRRETFKEDVHYIRRLISLRKAHPAFRLRSAADIQRHLECLTLKEHLIAYRLYDLDEVDEWKDIIVIHHASPDSVEWRLPNDIPYRLLCDPSGFQEDPTEIKKTVAVNGIGTVILYLASDLKSFA
  Reduction rate of specific enzyme activity in existence of α-CD: 8.2%
  Reduction rate of specific enzyme activity in existence of β-CD: 21.7%
  Reduction rate of specific enzyme activity in existence of γ-CD: 15.2%

B4: Wild enzyme: wild type pullulanase derived from Bacillus subtilis str. 168 (PDB:2E8Z, NCBI CAB14971.2, SEQ ID NO:2) (protein, listed as Bacillus subtilis)
chain: MVSIRRSFEAYVDDMNIITVLIPAEQKEIMTPPFRLETEITDFPLAVREEYSLEAKYKYVCVSDHPVTFGKIHCVRASSGHKTDLQIGAVIRTAAFDDEFYYDGELGAVYTADHTVFKVWAPAATSAAVKLSHPNKSGRTFQMTRLEKGVYAVTVTGDLHGYEYLFCICNNSEWMETVDQYAKAVTVNGEKGVVLRPDQMKWTAPLKPFSHPVDAVIYETHLRDFSIHENSGMINKGKYLALTETDTQTANGSSSGLAYVKELGVTHVELLPVNDFAGVDEEKPLDAYNWGYNPLHFFAPEGSYASNPHDPQTRKTELKQMINTLHQHGLRVILDVVFNHVYKRENSPFEKTVPGYFFRHDECGMPSNGTGVGNDIASERRMARKFIADCVVYWLEEYNVDGFRFDLLGILDIDTVLYMKEKATKAKPGILLFGEGWDLATPLPHEQKAALANAPRMPGIGFFNDMFRDAVKGNTFHLKATGFALGNGESAQAVMHGIAGSSGWKALAPIVPEPSQSINYVESHDNHTFWDKMSFALPQENDSRKRSRQRLAAAIILLAQGVPFIHSGQEFFRTKQGVENSYQSSDSINQLDWDRRETFKEDVHYIRRLISLRKAHPAFRLRSAADIQRHLECLTLKEHLIAYRLYDLDEVDEWKDIIVIHHASPDSVEWRLPNDIPYRLLCDPSGFQEDPTEIKKTVAVNGIGTVILYLASDLKSFA
  Reduction rate of specific enzyme activity in existence of α-CD: 14.3%
  Reduction rate of specific enzyme activity in existence of β-CD: 42.8%
  Reduction rate of specific enzyme activity in existence of γ-CD: 17.1%
[1]
  Reduction rate of specific enzyme activity in existence of α-CD: 14.3%
  Reduction rate of specific enzyme activity in existence of β-CD: 42.8%
  Reduction rate of specific enzyme activity in existence of γ-CD: 7.1% and 17.1%
